Positions count from the first letter of the chain named. One block for each binder: values may come before it.
Legend:
[1] = target: T1, human EGFRvIII-hFc protein (human, UniProt P00533 25-645); assay: ELISA, EGFRvIII-hFc coated
T1 construct: extracellular domain; also called immunogen A; hFc-tagged EGFRvIII protein; not shown: human IgG Fc fragment (hFc) of the pCpC vector
Description: The purified humanized anti-EGFRvIII antibody obtained in example 12 is reacted with a human EGFRvIII-hFc protein.
The purified immunogen A (EGFRvIII-hFc) obtained in example 1 (for the preparation method, see step (I) in example 1) is diluted with PBS to a final concentration of 1.0 μg/mL, and then added to a 96-well ELISA plate at 100 μl/well. The plate is sealed with a plastic film and incubated at 4° C. overnight. The next day, the plate is washed twice with a plate washing solution [PBS+0.01% (v/v) Tween20], and added with a blocking solution [PBS+0.01% (v/v) Tween20+1% (w/w) BSA] for blocking 2 hours at room temperature. […] The plate is incubated for 2 hours at 37° C., and then washed 3 times with the plate washing solution [PBS+0.01% (v/v) Tween20]. The plate is added with an HRP (horseradish peroxidase) labeled secondary antibody (purchased from Sigma), incubated at 37° C. for 2 hours, and then washed 3 times with the plate washing solution [PBS+0.01% (v/v) Tween20]. The plate is added with 100 μl of TMB substrate/well, incubated for 30 minutes at room temperature, and then added with 100 μl of stopping solution (1.0N HCl)/well. A450 nm value is read using an ELISA plate reader (SpectraMax 384plus, purchased from Molecular Device).

[2] = target: T2, human EGFRvIII protein on the cell surface (human, UniProt P00533 25-1210); assay: FACS on U87MG-EGFRvIII cells
T2 construct: whole, on cells; the cell line is named under assay; also called hEGFRvIII; U87MG-hEGFRvIII
Description: The preparation of U87MG-EGFRvIII required for FACS detection is as described in the preparation of the immunogen B in example 1. Normal human primary hepatocytes are purchased from BioreclamationIVT, and A431 tumor cells are purchased from ATCC. The recovered hepatocytes are directly used for FACS detection, and the recovered U87MG-EGFRvIII and A431 cells are subjected to an expanded culture to 90% confluence in a T-75 cell culture flask; the medium is sucked out, and the cells are washed twice with a HBSS buffer (Hanks Balanced Salt Solution) (purchased from Invitrogen), and then treated with an enzyme-free cell dissociation solution (Versene solution: purchased from Life Technology) and collected. The cells are washed twice with the HBSS buffer and are counted, and then the cells are diluted with the HBSS buffer to 2×10⁶ cells/ml, added with 1% goat serum blocking solution, with the percentage being the mass percentage, and incubated on ice for 30 minutes, and then centrifugally washed twice with the HBSS buffer. The collected cells are resuspended to 2×10⁶ cells/mL with an FACS buffer (HBSS+2% FBS, with the percentage being the volume percentage), added to a 96-well FACS reaction plate at 100 μL/well, then added with 100 μL/well of the purified EGFRvIII antibody (samples to be tested) obtained in example 12, and incubated on ice for 2 hours. The plate is centrifugally washed twice with the FACS buffer, added with 100 μL/well of a 1:1000 diluted fluorescence (Alexa 488) labeled secondary antibody (purchased from Invitrogen), and incubated on ice for 1 hour. The plate is centrifugally washed 3 times with the FACS buffer, added with 100 μL/well of a fixing solution [4% (v/v) paraformaldehyde] to resuspend the cells, and centrifugally washed twice with the FACS buffer after 10 minutes. The cells are resuspended in 100 μL of the FACS buffer, and the results are detected and analyzed by FACS (FACS Calibur, purchased from BD). Data analysis is performed by using the software (CellQuest) to obtain the mean fluorescence intensity (MFI) of the cells. Data is further analyzed by using the software (GraphPad Prism5) to perform data fitting and calculate EC50.

[3] = target: human EGFRvIII-hFc protein (human) (UniProt P00533); assay: ELISA, EGFRvIII-hFc coated
[4] = target: human EGFRvIII protein on the cell surface (human) (UniProt P00533); assay: FACS on U87MG-EGFRvIII cells

B1: Humanized antibody h63A10A7-17 (antibody, human IgG1, V domains shown)
VH: QVQLVQSGAEVKKPGASVKVSCKASGYTFISFTMHWVKQRPGQGLEWIGYINPNSGYTKYNQKFKDKATLTRDTSTSTVYMELSSLRSEDTAVYYCTRGGGRGFAYWGQGTLVTVSS
VL: DILMTQSPSSLSASVGDRVTITCHASQDINSNIGWLQQKPGKSFKALIYHGTNLEDGVPSRFSGSGSGADYTLTISSLQPEDFATYYCVQYAQFPFTFGQGTKLEIK
notes: also called VH-g4/VL-g4
EC50 [1]: 0.01 nM | Maximum OD450 value [1]: 3.71 OD450

B2: Humanized antibody h63A10A7-20 (antibody, human IgG1, V domains shown)
VH: B1 VH with K38R, R40A
VL: B1 VL
notes: also called VH-g7/VL-g4
EC50 [1]: 0.18 nM | Maximum OD450 value [1]: 3.55 OD450 | EC50 [2]: 1.56 nM | Maximum mean fluorescence intensity [2]: 22600 MFI

B3: Humanized antibody h63A10A7-21 (antibody, human IgG1, V domains shown)
VH: B1 VH with K67R, A68V
VL: B1 VL
notes: also called VH-g8/VL-g4
EC50 [1]: 0.17 nM | Maximum OD450 value [1]: 3.6 OD450 | EC50 [2]: 2.34 nM | Maximum mean fluorescence intensity [2]: 23500 MFI

B4: Humanized antibody h63A10A7-23 (antibody, human IgG1, V domains shown)
VH: B1 VH
VL: B1 VL with S43A, F44P
notes: also called VH-g4/VL-g5
EC50 [1]: 0.33 nM | Maximum OD450 value [1]: 3.47 OD450 | EC50 [2]: 4.62 nM | Maximum mean fluorescence intensity [2]: 20200 MFI

B5: Humanized antibody h63A10A7-18 (antibody, human IgG1, V domains shown)
VH: B1 VH with R72A, T74Q, V79A
VL: B1 VL
notes: also called VH-g5/VL-g4
EC50 [1]: 0.01 nM | Maximum OD450 value [1]: 3.71 OD450

B6: Humanized antibody h63A10A7-24 (antibody, human IgG1, V domains shown)
VH: B1 VH
VL: B1 VL with A69T
notes: also called VH-g4/VL-g6
EC50 [1]: 0.15 nM | Maximum OD450 value [1]: 3.67 OD450 | EC50 [2]: 1.83 nM | Maximum mean fluorescence intensity [2]: 24200 MFI

B8: Humanized antibody h63A10A7-22 (antibody, human IgG1, V domains shown)
VH: B1 VH
VL: B1 VL with L3Q
notes: also called VH-g4/VL-g3
EC50 [1]: 0.15 nM | Maximum OD450 value [1]: 3.57 OD450 | EC50 [2]: 1.58 nM | Maximum mean fluorescence intensity [2]: 23500 MFI

B11: Humanized antibody h63A10A7-19 (antibody, human IgG1, V domains shown)
VH: B1 VH with I48M, L70M
VL: B1 VL
notes: also called VH-g6/VL-g4
EC50 [1]: 0.17 nM | Maximum OD450 value [1]: 3.63 OD450 | EC50 [2]: 3.27 nM | Maximum mean fluorescence intensity [2]: 21100 MFI

B17: Humanized antibody h75G7C6-10 (antibody, human IgG1, V domains shown)
VH: QVQLVQSGAEVKKPGASVKVSCKASGYTFTDYNMDWVRQAPGQGLEWIGDINPNNADTIYNQKFKGRVTLTVDTSTSTVYMELSSLRSEDTAVYYCARGDYDGYYPVYYAMDYWGQGTTVTVSS
VL: ENVLTQSPATLSLSPGERATLSCRASSSVSSSYLHWYQQKPGQAPRLLIFSTSNLAAGIPARFSGSGSGTDYTLTISSLEPEDFAVYYCQQYSGYPLTFGGGTKVEIK
notes: also called VH-g1/VL-g1
EC50 [1]: 0.66 nM | Maximum OD450 value [1]: 2.98 OD450 | EC50 [2]: 5.32 nM | Maximum mean fluorescence intensity [2]: 18000 MFI

Next, values leading:

EC50 [1]: 0.22 nM | Maximum OD450 value [1]: 3.7 OD450 | EC50 [2]: 3.03 nM | Maximum mean fluorescence intensity [2]: 10700 MFI
B7: Humanized antibody h63A10A7-38 (antibody, human IgG1, V domains shown)
VH: B1 VH with K38R, R40A
VL: B1 VL with L3Q
notes: also called VH-g7/VL-g3

EC50 [1]: 0.17 nM | Maximum OD450 value [1]: 3.61 OD450 | EC50 [2]: 1.32 nM | Maximum mean fluorescence intensity [2]: 24700 MFI
B9: Humanized antibody h63A10A7-25 (antibody, human IgG1, V domains shown)
VH: B1 VH
VL: B1 VL with L36Y
notes: also called VH-g4/VL-g7

EC50 [1]: 0.24 nM | Maximum OD450 value [1]: 3.6 OD450 | EC50 [2]: 4.1 nM | Maximum mean fluorescence intensity [2]: 10700 MFI
B10: Humanized antibody h63A10A7-39 (antibody, human IgG1, V domains shown)
VH: B1 VH with K67R, A68V
VL: B1 VL with L3Q
notes: also called VH-g8/VL-g3

EC50 [1]: 0.16 nM | Maximum OD450 value [1]: 3.65 OD450 | EC50 [2]: 1.79 nM | Maximum mean fluorescence intensity [2]: 23700 MFI
B12: Humanized antibody h63A10A7-26 (antibody, human IgG1, V domains shown)
VH: B1 VH
VL: B1 VL with L36Y, Y71F
notes: also called VH-g4/VL-g8

EC50 [1]: 0.28 nM | Maximum OD450 value [1]: 3.6 OD450 | EC50 [2]: 5.35 nM | Maximum mean fluorescence intensity [2]: 10200 MFI
B13: Humanized antibody h63A10A7-37 (antibody, human IgG1, V domains shown)
VH: B1 VH with I48M, L70M
VL: B1 VL with L3Q
notes: also called VH-g6/VL-g3

EC50 [3]: 0.51 nM | Maximum OD450 value [3]: 3.44 OD450 | EC50 [4]: 5.6 nM | Maximum mean fluorescence intensity [4]: 18600 MFI
B14: Humanized antibody h75G7C6-3 (antibody, human IgG1, V domains shown)
VH: B17 VH with Q1E, R38K, T74K
VL: B17 VL with A44S

EC50 [3]: 0.45 nM | Maximum OD450 value [3]: 3.37 OD450 | EC50 [4]: 5.57 nM | Maximum mean fluorescence intensity [4]: 18700 MFI
B15: Humanized antibody h75G7C6-4 (antibody, human IgG1, V domains shown)
VH: B17 VH with Q1E, R38K, T74K
VL: B17 VL with A44S, I59V

EC50 [3]: 0.68 nM | Maximum OD450 value [3]: 3.2 OD450 | EC50 [4]: 5.96 nM | Maximum mean fluorescence intensity [4]: 17100 MFI
B16: Humanized antibody h75G7C6-6 (antibody, human IgG1, V domains shown)
VH: B17 VH with I48M, L70M, V72R
VL: B17 VL

EC50 [3]: 1.1 nM | Maximum OD450 value [3]: 2.97 OD450 | EC50 [4]: 5.74 nM | Maximum mean fluorescence intensity [4]: 17200 MFI
B18: Humanized antibody h75G7C6-7 (antibody, human IgG1, V domains shown)
VH: B17 VH with I48M, L70M, V72R
VL: B17 VL with A44S

EC50 [3]: 2 nM | Maximum OD450 value [3]: 2.72 OD450 | EC50 [4]: 11.6 nM | Maximum mean fluorescence intensity [4]: 17600 MFI
B19: Humanized antibody h75G7C6-8 (antibody, human IgG1, V domains shown)
VH: B17 VH with I48M, L70M, V72R
VL: B17 VL with A44S, I59V

EC50 [1]: 0.67 nM | Maximum OD450 value [1]: 2.96 OD450 | EC50 [2]: 5.11 nM | Maximum mean fluorescence intensity [2]: 17600 MFI
B20: Humanized antibody h75G7C6-11 (antibody, human IgG1, V domains shown)
VH: B17 VH
VL: B17 VL with A44S
notes: also called VH-g1/VL-g2

EC50 [1]: 0.57 nM | Maximum OD450 value [1]: 2.73 OD450 | EC50 [2]: 5.2 nM | Maximum mean fluorescence intensity [2]: 17800 MFI
B21: Humanized antibody h75G7C6-12 (antibody, human IgG1, V domains shown)
VH: B17 VH
VL: B17 VL with A44S, I59V
notes: also called VH-g1/VL-g3
